We go through six molecules from article PMC7577978, “IM30 IDPs form a membrane-protective carpet upon super-complex disassembly” (Communications Biology, 2020).

As usually defined, the stoichiometry N is a count of units in the complex or per binding partner.

Where a chain is given by its changes, count along the chain named. In names and notes the source's numbering stands.

For data set [1], the target named is T1, IM30-Venus, Venus-labeled Synechocystis IM30 (Synechocystis sp. PCC 6803, UniProt Q55707 1-267).
T1 construct: IM30 (VIPP1) of Synechocystis sp; PCC 6803; Venus fragment ligated into pRSET SynIM30 plasmid; purified as the His-tagged WT, so a His tag is likely present; also called Venus-labeled IM30 monomers; source: E. coli, copurified with IM30-CFP after mixing cell pellets prior to cell lysis
T1 sequence (looked up): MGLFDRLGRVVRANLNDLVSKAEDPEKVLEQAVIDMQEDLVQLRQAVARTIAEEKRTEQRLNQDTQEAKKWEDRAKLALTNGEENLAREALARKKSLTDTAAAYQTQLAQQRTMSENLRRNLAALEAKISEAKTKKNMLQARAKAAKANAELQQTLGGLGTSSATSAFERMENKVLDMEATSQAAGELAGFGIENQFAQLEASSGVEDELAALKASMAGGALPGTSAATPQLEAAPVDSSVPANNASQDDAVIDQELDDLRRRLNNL
Put plainly: FRET or BRET; 0.2 µM purified CFP/Venus labeled IM30 rings (copurified from mixed cell pellets, 27% CFP and 63% Venus w/w), excitation 420 nm, RT, with 0-1000 µM DOPG liposomes. To be noted: both partners purified. In general terms: In BRET a luciferase serves as donor, and the signal depends on an acceptor being close.

Data set [2] concerns the molecule itself. The data set can be described thus: cross-linking; disulfide between Cys227 of two protomers; SDS-PAGE of the purified A227C mutants in absence of reducing agents.
Data set [3] deals with the molecule itself. Put plainly: atomic force microscopy; ~0.5 µM IM30 WT adsorbed on mica, 10 mM Tris or HEPES, 150 mM KCl, 25 mM MgCl2, pH 7.6; imaged in buffer at ~30 °C.
Data set [4] concerns the molecule itself. Put plainly: SEC; Superose12 10/300 GL, 20 mM HEPES pH 7.6 with 0, 50, 100, 150 or 300 mM NaCl, 8 °C; IM30* at suitable NaCl concentrations. On the technique in general: SEC sorts molecules by how far they enter the pores of the column.
Data set [5] deals with the molecule itself. Put plainly: SEC-MALS; Superdex 200 Increase 10/300 GL, 25 mM HEPES pH 7.5, 125 mM NaCl, 5% glycerol (w/w), RT.

B1: IM30-CFP, CFP-labeled Synechocystis IM30 (natural protein, Synechocystis sp. PCC 6803, UniProt Q55707 1-267, looked up)
chain: T1 sequence (looked up)
notes: IM30 (VIPP1) of Synechocystis sp; PCC 6803; CFP fragment ligated into pRSET SynIM30 plasmid; purified as the His-tagged WT, so a His tag is likely present; also called CFP labeled IM30 monomers; source: E. coli, copurified with IM30-Venus after mixing cell pellets prior to cell lysis
As for B1, in data set [1], the binding result is “binds”.

B2: IM30_A227C, A227C mutant of Synechocystis IM30 WT (natural protein, Synechocystis sp. PCC 6803, UniProt Q55707 1-267, looked up)
chain: T1 sequence (looked up) with A227C
notes: IM30 (VIPP1) of Synechocystis sp; PCC 6803, full length, with A227C; the methods print '(A272C)' in brackets after the name IM30_A227C, the results and the legend say A227C; also called A227C mutant of IM30 WT
On to B2, for which the binding result in data set [2] was “binds”.

B3: IM30*_A227C (E83A, E84A, F168A, E169A, R170A, M171A, A227C) (natural protein, Synechocystis sp. PCC 6803, UniProt Q55707 1-267, looked up)
chain: T1 sequence (looked up) with E83A, E84A, F168A, E169A, R170A, M171A, A227C
notes: IM30 (VIPP1) of Synechocystis sp; PCC 6803, full length, the six alanine substitutions of IM30* and A227C in the linker between helix 6 and 7; also called A227C mutant of IM30*
As for B3, the binding result in data set [2] was “binds”.

B4: inner membrane-associated protein of 30 kDa (IM30) wild type, N-terminally His-tagged, from Synechocystis sp. PCC 6803 (natural protein, UniProt Q55707 1-267, looked up)
chain: T1 sequence (looked up)
notes: IM30 (VIPP1) of Synechocystis sp; PCC 6803, full-length wild type; also called IM30 WT; VIPP1
For the molecule B4, the binding result in data set [3] is given as “binds”.

B5: IM30* (E83A, E84A, F168A, E169A, R170A, M171A), oligomerization-impaired mutant of Synechocystis IM30 (natural protein, Synechocystis sp. PCC 6803, UniProt Q55707 1-267, looked up)
chain: T1 sequence (looked up) with E83A, E84A, F168A, E169A, R170A, M171A
notes: IM30 (VIPP1) of Synechocystis sp; PCC 6803, full length, with six alanine substitutions made by site-directed mutagenesis; For SEC-SAXS the protein was heated to 50 °C, cooled slowly and buffer-exchanged by SEC before the run; also called IM30* dimers
Consider B5, for which the “stoichiometry N” value in data set [4] is 2.

B6: IM30_H3b-7 (amino acids 147-267), WT fragment of Synechocystis IM30 (domain or fragment, Synechocystis sp. PCC 6803, UniProt Q55707 147-267, looked up)
chain: KANAELQQTLGGLGTSSATSAFERMENKVLDMEATSQAAGELAGFGIENQFAQLEASSGVEDELAALKASMAGGALPGTSAATPQLEAAPVDSSVPANNASQDDAVIDQELDDLRRRLNNL
notes: IM30 (VIPP1) of Synechocystis sp; PCC 6803, amino acids 147-267 (helices 3b-7); also called helices 3b-7; intrinsically disordered C-terminus
On to B6, for which the “stoichiometry N” value in data set [5] is 2.
